# Measurements as given in patent publication US7657380.
# Target: T1, human CD30 (commercial, conjugated to digoxigenin) (human, UniProt P28908 19-379, limits assumed, conjugated to digoxigenin (DIG))
# T1 sequence (looked up): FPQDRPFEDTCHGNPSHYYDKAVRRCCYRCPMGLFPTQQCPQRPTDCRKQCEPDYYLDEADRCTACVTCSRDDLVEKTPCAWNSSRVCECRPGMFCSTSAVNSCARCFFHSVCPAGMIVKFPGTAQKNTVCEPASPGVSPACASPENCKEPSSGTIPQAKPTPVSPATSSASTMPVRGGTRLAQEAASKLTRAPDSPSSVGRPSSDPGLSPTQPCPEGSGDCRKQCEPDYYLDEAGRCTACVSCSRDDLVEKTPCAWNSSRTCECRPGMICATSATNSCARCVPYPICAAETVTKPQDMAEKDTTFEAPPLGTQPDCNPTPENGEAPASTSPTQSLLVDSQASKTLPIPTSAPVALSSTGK
# Assay: AlphaScreen competition
row,Binder,Fold IC50 vs H3/L3 [fold]
1,"AC10 H3.1/L3 (antibody, IgG1, name in Kabat numbering, V domains shown) VH: EIQLVQSGPEVKKPGASVKVSCKASGYTFTDYYITWVRQAPGQGLEWMGWIYPGSGNTKYNEKFQGRFVFSVDTSASTAYLQISSLKAEDTAVYFCANYGNYWFAYWGQGTLVTVSS VL: DIVLTQSPDSLAVSLGERATINCKASQSVDFDGDSYMNWYQQKPGQPPKVLIYAASNLESGIPARFSGSGSGTDFTLTINSLEAEDAATYYCQQSNEDPWTFGGGTKVEIK",1
2,"AC10 H3.16/L3 (antibody, IgG1, name in Kabat numbering, V domains shown) VH: QIQLVQSGPEVKKPGASVKVSCKASGYTFTDYYIGWVRQAPGQGLEWMGWIYPGSGNTKYNEKFQGRFVFSVDTSASTAYLQISSLKAEDTAVYFCANYGNYWFAYWGQGTLVTVSS VL: DIVLTQSPDSLAVSLGERATINCKASQSVDFDGDSYMNWYQQKPGQPPKVLIYAASNLESGIPARFSGSGSGTDFTLTINSLEAEDAATYYCQQSNEDPWTFGGGTKVEIK",0.15
3,"AC10 H3.9/L3 (antibody, IgG1, name in Kabat numbering, V domains shown) VH: QIQLVQSGPEVKKPGASVKVSCKASGYTFTSYYITWVRQAPGQGLEWMGWIYPGSGNTKYNEKFQGRFVFSVDTSASTAYLQISSLKAEDTAVYFCANYGNYWFAYWGQGTLVTVSS VL: DIVLTQSPDSLAVSLGERATINCKASQSVDFDGDSYMNWYQQKPGQPPKVLIYAASNLESGIPARFSGSGSGTDFTLTINSLEAEDAATYYCQQSNEDPWTFGGGTKVEIK",1.65
4,"AC10 H3.14/L3 (antibody, IgG1, name in Kabat numbering, V domains shown) VH: QIQLVQSGPEVKKPGASVKVSCKASGYTFTDYYMTWVRQAPGQGLEWMGWIYPGSGNTKYNEKFQGRFVFSVDTSASTAYLQISSLKAEDTAVYFCANYGNYWFAYWGQGTLVTVSS VL: DIVLTQSPDSLAVSLGERATINCKASQSVDFDGDSYMNWYQQKPGQPPKVLIYAASNLESGIPARFSGSGSGTDFTLTINSLEAEDAATYYCQQSNEDPWTFGGGTKVEIK",1.62
5,"AC10 H3.21/L3 (antibody, IgG1, name in Kabat numbering, V domains shown) VH: QIQLVQSGPEVKKPGASVKVSCKASGYTFTDYYITWVRQAPGQRLEWMGWIYPGSGNTKYNEKFQGRFVFSVDTSASTAYLQISSLKAEDTAVYFCANYGNYWFAYWGQGTLVTVSS VL: DIVLTQSPDSLAVSLGERATINCKASQSVDFDGDSYMNWYQQKPGQPPKVLIYAASNLESGIPARFSGSGSGTDFTLTINSLEAEDAATYYCQQSNEDPWTFGGGTKVEIK",2.6
6,"AC10 H3.7/L3 (antibody, IgG1, name in Kabat numbering, V domains shown) VH: QIQLVQSGPEVKKPGASVKVSCKVSGYTFTDYYITWVRQAPGQGLEWMGWIYPGSGNTKYNEKFQGRFVFSVDTSASTAYLQISSLKAEDTAVYFCANYGNYWFAYWGQGTLVTVSS VL: DIVLTQSPDSLAVSLGERATINCKASQSVDFDGDSYMNWYQQKPGQPPKVLIYAASNLESGIPARFSGSGSGTDFTLTINSLEAEDAATYYCQQSNEDPWTFGGGTKVEIK",4.45
7,"AC10 H3.12/L3 (antibody, IgG1, name in Kabat numbering, V domains shown) VH: QIQLVQSGPEVKKPGASVKVSCKASGYTFTDYWITWVRQAPGQGLEWMGWIYPGSGNTKYNEKFQGRFVFSVDTSASTAYLQISSLKAEDTAVYFCANYGNYWFAYWGQGTLVTVSS VL: DIVLTQSPDSLAVSLGERATINCKASQSVDFDGDSYMNWYQQKPGQPPKVLIYAASNLESGIPARFSGSGSGTDFTLTINSLEAEDAATYYCQQSNEDPWTFGGGTKVEIK",0
8,"AC10 H3.11/L3 (antibody, IgG1, name in Kabat numbering, V domains shown) VH: QIQLVQSGPEVKKPGASVKVSCKASGYTFTDYGITWVRQAPGQGLEWMGWIYPGSGNTKYNEKFQGRFVFSVDTSASTAYLQISSLKAEDTAVYFCANYGNYWFAYWGQGTLVTVSS VL: DIVLTQSPDSLAVSLGERATINCKASQSVDFDGDSYMNWYQQKPGQPPKVLIYAASNLESGIPARFSGSGSGTDFTLTINSLEAEDAATYYCQQSNEDPWTFGGGTKVEIK",0.73
9,"AC10 H3.19/L3 (antibody, IgG1, name in Kabat numbering, V domains shown) VH: QIQLVQSGPEVKKPGASVKVSCKASGYTFTDYYISWVRQAPGQGLEWMGWIYPGSGNTKYNEKFQGRFVFSVDTSASTAYLQISSLKAEDTAVYFCANYGNYWFAYWGQGTLVTVSS VL: DIVLTQSPDSLAVSLGERATINCKASQSVDFDGDSYMNWYQQKPGQPPKVLIYAASNLESGIPARFSGSGSGTDFTLTINSLEAEDAATYYCQQSNEDPWTFGGGTKVEIK",1.11
10,"AC10 H3.20/L3 (antibody, IgG1, name in Kabat numbering, V domains shown) VH: QIQLVQSGPEVKKPGASVKVSCKASGYTFTDYYITWVRQAPGQALEWMGWIYPGSGNTKYNEKFQGRFVFSVDTSASTAYLQISSLKAEDTAVYFCANYGNYWFAYWGQGTLVTVSS VL: DIVLTQSPDSLAVSLGERATINCKASQSVDFDGDSYMNWYQQKPGQPPKVLIYAASNLESGIPARFSGSGSGTDFTLTINSLEAEDAATYYCQQSNEDPWTFGGGTKVEIK",2.04
11,"AC10 H3.18/L3 (antibody, IgG1, name in Kabat numbering, V domains shown) VH: QIQLVQSGPEVKKPGASVKVSCKASGYTFTDYYINWVRQAPGQGLEWMGWIYPGSGNTKYNEKFQGRFVFSVDTSASTAYLQISSLKAEDTAVYFCANYGNYWFAYWGQGTLVTVSS VL: DIVLTQSPDSLAVSLGERATINCKASQSVDFDGDSYMNWYQQKPGQPPKVLIYAASNLESGIPARFSGSGSGTDFTLTINSLEAEDAATYYCQQSNEDPWTFGGGTKVEIK",0.13
12,"AC10 H3.4/L3 (antibody, IgG1, name in Kabat numbering, V domains shown) VH: QVQLVQSGPEVKKPGASVKVSCKASGYTFTDYYITWVRQAPGQGLEWMGWIYPGSGNTKYNEKFQGRFVFSVDTSASTAYLQISSLKAEDTAVYFCANYGNYWFAYWGQGTLVTVSS VL: DIVLTQSPDSLAVSLGERATINCKASQSVDFDGDSYMNWYQQKPGQPPKVLIYAASNLESGIPARFSGSGSGTDFTLTINSLEAEDAATYYCQQSNEDPWTFGGGTKVEIK",1.28
13,"AC10 H3.2/L3 (antibody, IgG1, name in Kabat numbering, V domains shown) VH: QLQLVQSGPEVKKPGASVKVSCKASGYTFTDYYITWVRQAPGQGLEWMGWIYPGSGNTKYNEKFQGRFVFSVDTSASTAYLQISSLKAEDTAVYFCANYGNYWFAYWGQGTLVTVSS VL: DIVLTQSPDSLAVSLGERATINCKASQSVDFDGDSYMNWYQQKPGQPPKVLIYAASNLESGIPARFSGSGSGTDFTLTINSLEAEDAATYYCQQSNEDPWTFGGGTKVEIK",2.76
14,"AC10 H3.6/L3 (antibody, IgG1, name in Kabat numbering, V domains shown) VH: QIQLVQSGPEVKKPGTSVKVSCKASGYTFTDYYITWVRQAPGQGLEWMGWIYPGSGNTKYNEKFQGRFVFSVDTSASTAYLQISSLKAEDTAVYFCANYGNYWFAYWGQGTLVTVSS VL: DIVLTQSPDSLAVSLGERATINCKASQSVDFDGDSYMNWYQQKPGQPPKVLIYAASNLESGIPARFSGSGSGTDFTLTINSLEAEDAATYYCQQSNEDPWTFGGGTKVEIK",1.13
15,"AC10 H3.8/L3 (antibody, IgG1, name in Kabat numbering, V domains shown) VH: QIQLVQSGPEVKKPGASVKVSCKASGYTFTGYYITWVRQAPGQGLEWMGWIYPGSGNTKYNEKFQGRFVFSVDTSASTAYLQISSLKAEDTAVYFCANYGNYWFAYWGQGTLVTVSS VL: DIVLTQSPDSLAVSLGERATINCKASQSVDFDGDSYMNWYQQKPGQPPKVLIYAASNLESGIPARFSGSGSGTDFTLTINSLEAEDAATYYCQQSNEDPWTFGGGTKVEIK",1.4
16,"AC10 H3.13/L3 (antibody, IgG1, name in Kabat numbering, V domains shown) VH: QIQLVQSGPEVKKPGASVKVSCKASGYTFTDYYLTWVRQAPGQGLEWMGWIYPGSGNTKYNEKFQGRFVFSVDTSASTAYLQISSLKAEDTAVYFCANYGNYWFAYWGQGTLVTVSS VL: DIVLTQSPDSLAVSLGERATINCKASQSVDFDGDSYMNWYQQKPGQPPKVLIYAASNLESGIPARFSGSGSGTDFTLTINSLEAEDAATYYCQQSNEDPWTFGGGTKVEIK",1.52
17,"AC10 H3.3/L3 (antibody, IgG1, name in Kabat numbering, V domains shown) VH: QMQLVQSGPEVKKPGASVKVSCKASGYTFTDYYITWVRQAPGQGLEWMGWIYPGSGNTKYNEKFQGRFVFSVDTSASTAYLQISSLKAEDTAVYFCANYGNYWFAYWGQGTLVTVSS VL: DIVLTQSPDSLAVSLGERATINCKASQSVDFDGDSYMNWYQQKPGQPPKVLIYAASNLESGIPARFSGSGSGTDFTLTINSLEAEDAATYYCQQSNEDPWTFGGGTKVEIK",0.68
18,"AC10 H3.17/L3 (antibody, IgG1, name in Kabat numbering, V domains shown) VH: QIQLVQSGPEVKKPGASVKVSCKASGYTFTDYYIHWVRQAPGQGLEWMGWIYPGSGNTKYNEKFQGRFVFSVDTSASTAYLQISSLKAEDTAVYFCANYGNYWFAYWGQGTLVTVSS VL: DIVLTQSPDSLAVSLGERATINCKASQSVDFDGDSYMNWYQQKPGQPPKVLIYAASNLESGIPARFSGSGSGTDFTLTINSLEAEDAATYYCQQSNEDPWTFGGGTKVEIK",0.04
19,"AC10 H3.22/L3 (antibody, IgG1, name in Kabat numbering, V domains shown) VH: QIQLVQSGPEVKKPGASVKVSCKASGYTFTDYYITWVRQAPGQGLEWMGIIYPGSGNTKYNEKFQGRFVFSVDTSASTAYLQISSLKAEDTAVYFCANYGNYWFAYWGQGTLVTVSS VL: DIVLTQSPDSLAVSLGERATINCKASQSVDFDGDSYMNWYQQKPGQPPKVLIYAASNLESGIPARFSGSGSGTDFTLTINSLEAEDAATYYCQQSNEDPWTFGGGTKVEIK",0.01
20,"AC10 H3.5/L3 (antibody, IgG1, name in Kabat numbering, V domains shown) VH: QIQLVQSGAEVKKPGASVKVSCKASGYTFTDYYITWVRQAPGQGLEWMGWIYPGSGNTKYNEKFQGRFVFSVDTSASTAYLQISSLKAEDTAVYFCANYGNYWFAYWGQGTLVTVSS VL: DIVLTQSPDSLAVSLGERATINCKASQSVDFDGDSYMNWYQQKPGQPPKVLIYAASNLESGIPARFSGSGSGTDFTLTINSLEAEDAATYYCQQSNEDPWTFGGGTKVEIK",1.29
21,"AC10 H3.23/L3 (antibody, IgG1, name in Kabat numbering, V domains shown) VH: QIQLVQSGPEVKKPGASVKVSCKASGYTFTDYYITWVRQAPGQGLEWMGRIYPGSGNTKYNEKFQGRFVFSVDTSASTAYLQISSLKAEDTAVYFCANYGNYWFAYWGQGTLVTVSS VL: DIVLTQSPDSLAVSLGERATINCKASQSVDFDGDSYMNWYQQKPGQPPKVLIYAASNLESGIPARFSGSGSGTDFTLTINSLEAEDAATYYCQQSNEDPWTFGGGTKVEIK",0.16
